Experimental data as given in PMC5762779, “The peroxisomal AAA-ATPase Pex1/Pex6 unfolds substrates by processive threading” (Nature Communications, 2018).
Each block holds one binder with its values, some of them ahead of it.

Tests used:
Conditions in all cases: both partners purified
[1] = biological target: T1, Pex1-WB2/Pex6-WB2 mutant hexamer (Pex1-E798Q-Strep/His-Pex6-E832Q) (S. cerevisiae, UniProt P24004 1-1043; P33760 1-1030, E798Q | E832Q); test: HDX-MS; 3 uM Pex15 1-309 and 100 nM Pex1-WB2/Pex6-WB2 hexamer in D2O buffer (60 mM HEPES pD 7.6, 50 mM NaCl, 50 mM KCl, 10% glycerol, 10 mM MgCl2, 0.5 mM EDTA, 5 mM ATP); 15 s deuteration, with and without saturating Pex15
T1 construct: Pex1, S. cerevisiae W303, Walker B D2 mutant; Pex6, S. cerevisiae W303, Walker B D2 mutant; also called Pex1-WB/Pex6-WB; ATPase-deficient Pex1/Pex6; source: E. coli BL21*, co-expressed, purified (Ni-NTA, Streptactin); copies: 3 + 3

[2] = biological target: T2, Pex1-FLAG/His-Pex6 hexamer, wild type (S. cerevisiae, UniProt P24004 1-1043; P33760 1-1030); test: inhibition of ATPase activity (ATP/NADH coupled enzyme assay); apparent KD from the concentration-dependent inhibition of the ATPase activity of 5 nM Pex1/Pex6 by titrated Pex15; 5 mM ATP, 2 uM BSA; n = 3 technical replicates
T2 construct: Pex1, S. cerevisiae W303; Pex6, S. cerevisiae W303; Heterohexamer with alternating subunits; also called WT Pex1/Pex6; Pex1/Pex6; source: E. coli BL21*, co-expressed, purified (Ni-NTA, anti-FLAG, Superose6); copies: 3 + 3
T2 sequence (P24004 whole entry, chain 1 of 2): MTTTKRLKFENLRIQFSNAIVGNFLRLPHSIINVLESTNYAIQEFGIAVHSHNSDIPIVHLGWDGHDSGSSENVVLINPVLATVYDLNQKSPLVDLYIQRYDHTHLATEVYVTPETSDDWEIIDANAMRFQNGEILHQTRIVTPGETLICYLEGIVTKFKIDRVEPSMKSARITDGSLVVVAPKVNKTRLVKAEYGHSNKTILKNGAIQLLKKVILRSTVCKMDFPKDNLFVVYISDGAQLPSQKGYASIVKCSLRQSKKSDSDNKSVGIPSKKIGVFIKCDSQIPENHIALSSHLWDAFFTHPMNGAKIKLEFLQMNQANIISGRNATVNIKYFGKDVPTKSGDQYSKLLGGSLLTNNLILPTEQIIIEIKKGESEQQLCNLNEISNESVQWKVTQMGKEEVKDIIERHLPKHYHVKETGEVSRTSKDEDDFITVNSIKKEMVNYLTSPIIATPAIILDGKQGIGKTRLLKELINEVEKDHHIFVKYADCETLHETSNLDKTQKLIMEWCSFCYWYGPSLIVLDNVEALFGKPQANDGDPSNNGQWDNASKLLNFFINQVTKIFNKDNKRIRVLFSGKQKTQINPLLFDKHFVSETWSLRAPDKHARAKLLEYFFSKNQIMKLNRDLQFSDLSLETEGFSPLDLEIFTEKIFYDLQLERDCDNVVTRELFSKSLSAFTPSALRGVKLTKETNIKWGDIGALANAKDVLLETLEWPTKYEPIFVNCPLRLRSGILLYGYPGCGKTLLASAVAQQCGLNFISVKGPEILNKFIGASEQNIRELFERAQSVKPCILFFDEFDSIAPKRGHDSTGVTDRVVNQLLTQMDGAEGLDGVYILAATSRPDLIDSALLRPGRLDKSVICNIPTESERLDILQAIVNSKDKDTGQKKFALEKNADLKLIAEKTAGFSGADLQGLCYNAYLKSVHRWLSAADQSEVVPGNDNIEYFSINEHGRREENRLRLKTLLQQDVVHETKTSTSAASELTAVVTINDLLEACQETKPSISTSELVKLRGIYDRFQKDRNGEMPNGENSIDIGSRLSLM
T2 sequence (P33760 whole entry, chain 2 of 2): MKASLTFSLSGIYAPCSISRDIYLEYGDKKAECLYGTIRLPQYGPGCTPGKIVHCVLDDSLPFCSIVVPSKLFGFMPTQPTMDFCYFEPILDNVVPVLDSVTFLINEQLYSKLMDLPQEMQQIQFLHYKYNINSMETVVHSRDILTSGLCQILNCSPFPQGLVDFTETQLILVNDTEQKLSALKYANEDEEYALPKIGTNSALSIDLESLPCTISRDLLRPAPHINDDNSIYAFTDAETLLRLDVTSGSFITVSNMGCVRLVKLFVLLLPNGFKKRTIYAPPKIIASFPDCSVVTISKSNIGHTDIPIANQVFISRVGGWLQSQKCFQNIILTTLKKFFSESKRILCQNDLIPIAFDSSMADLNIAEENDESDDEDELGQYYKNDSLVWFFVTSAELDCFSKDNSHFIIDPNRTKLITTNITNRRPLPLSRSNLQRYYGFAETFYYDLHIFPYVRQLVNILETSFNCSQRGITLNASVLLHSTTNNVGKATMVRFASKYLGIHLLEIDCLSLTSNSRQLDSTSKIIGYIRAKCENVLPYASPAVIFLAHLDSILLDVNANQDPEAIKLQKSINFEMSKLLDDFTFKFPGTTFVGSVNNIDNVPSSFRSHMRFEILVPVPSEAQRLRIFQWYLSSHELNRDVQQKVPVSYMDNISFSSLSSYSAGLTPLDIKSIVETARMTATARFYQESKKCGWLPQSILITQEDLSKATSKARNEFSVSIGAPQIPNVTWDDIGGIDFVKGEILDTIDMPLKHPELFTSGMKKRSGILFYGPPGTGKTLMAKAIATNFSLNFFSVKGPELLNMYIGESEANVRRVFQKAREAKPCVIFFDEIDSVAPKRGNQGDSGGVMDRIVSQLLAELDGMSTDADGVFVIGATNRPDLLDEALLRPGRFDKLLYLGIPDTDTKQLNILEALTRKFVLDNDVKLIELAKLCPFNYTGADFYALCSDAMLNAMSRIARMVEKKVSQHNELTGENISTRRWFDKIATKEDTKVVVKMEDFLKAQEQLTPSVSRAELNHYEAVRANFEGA

[3] = biological target: T3, Pex1-FLAG/His-Pex6 (V245A, T246A) hexamer (S. cerevisiae, UniProt P24004 1-1043; P33760 1-1030, V245A | T246A); test: as above
T3 construct: Pex1, S. cerevisiae W303; also called Pex1/Pex6-VT:AA; Pex6 VT:AA; source: E. coli BL21*, co-expressed, purified (Ni-NTA, anti-FLAG, Superose6); copies: 3 + 3

[4] = biological target: T2, Pex1-FLAG/His-Pex6 hexamer, wild type; test: as above; remark: listed apart in the source
[5] = biological target: T4, fluorescein-labeled Pex5 (Pex5-FAM) (S. cerevisiae, UniProt P35056 1-612, fluorescein-conjugated peptide GGGK-FAM joined by sortase at the LPETGG site at the C-terminus); test: pull-down; 2 μM MBP-Pex15 1-327 on magnetic amylose resin with 350 nM Pex5-FAM, with or without 1 μM Pex1-WB2/Pex6-WB2 and 100 μM SKL peptide, 1 h, 4 °C, 60 mM HEPES pH 7.6, 150 mM NaCl, 150 mM KCl, 10% glycerol, 0.05% Tween-20, 10 mM MgCl2, 0.5 mM EDTA, 5 mM ATP; eluted with 20 mM maltose; Pex5 seen by its fluorescein
T4 construct: Pex5, S. cerevisiae W303 coding region, followed by a sortase site (LPETGG) upstream of the C-terminal 6xHis tag; Likely derived from FLAG-Pex5-His, so an N-terminal FLAG tag may be present; After sortase the C-terminus should read LPET-GGGK(FAM); source: E. coli BL21*, purified, sortase-labelled, Ni-NTA flow-through, Superdex 200 increase; not shown: His6, C-terminal, cleaved
T4 sequence (looked up): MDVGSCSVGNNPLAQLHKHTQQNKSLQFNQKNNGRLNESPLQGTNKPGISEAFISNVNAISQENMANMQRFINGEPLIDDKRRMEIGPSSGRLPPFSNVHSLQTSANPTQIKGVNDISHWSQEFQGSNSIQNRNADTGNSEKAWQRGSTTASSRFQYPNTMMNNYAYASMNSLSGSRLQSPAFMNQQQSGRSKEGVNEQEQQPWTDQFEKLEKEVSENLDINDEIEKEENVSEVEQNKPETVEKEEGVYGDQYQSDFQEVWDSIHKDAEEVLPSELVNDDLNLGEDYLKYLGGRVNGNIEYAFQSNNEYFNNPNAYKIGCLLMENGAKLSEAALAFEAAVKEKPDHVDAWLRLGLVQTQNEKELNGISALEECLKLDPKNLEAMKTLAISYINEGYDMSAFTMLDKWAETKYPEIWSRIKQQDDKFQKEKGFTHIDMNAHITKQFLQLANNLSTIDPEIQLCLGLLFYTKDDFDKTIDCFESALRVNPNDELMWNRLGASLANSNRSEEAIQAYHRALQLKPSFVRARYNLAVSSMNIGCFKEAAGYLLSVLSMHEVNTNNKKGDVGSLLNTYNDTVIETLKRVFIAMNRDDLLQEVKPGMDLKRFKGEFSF

[6] = biological target: T5, Pex1-FLAG/His-Pex6 hexamer, wild type (S. cerevisiae, UniProt P24004 1-1043; P33760 1-1030); test: negative-stain EM reconstruction; 20 nM Pex1-FLAG/His-Pex6 mixed with 200 nM Pex15, 5 min on ice, 5 mM ATP; 3D reconstruction at 23.2 Å
T5 construct: Pex1, S. cerevisiae W303 coding region; Pex6, S. cerevisiae W303 coding region; also called Pex1/Pex6; wild-type Pex1/Pex6; source: E. coli BL21*, co-expressed, purified (Ni-NTA, anti-FLAG, Superose6); not shown: FLAG, C-terminal, kept; His6, N-terminal, kept; copies: 3 + 3
T5 sequence (P24004 whole entry, chain 1 of 2): as the sequence (P24004 whole entry, chain 1 of 2) above
T5 sequence (P33760 whole entry, chain 2 of 2): as the sequence (P33760 whole entry, chain 2 of 2) above

T3 sequence (P24004 whole entry, chain 1 of 2): as the sequence (P24004 whole entry, chain 1 of 2) above
T3 sequence (P33760 whole entry V245A/T246A, chain 2 of 2): as the sequence (P33760 whole entry, chain 2 of 2) above, with V245A, T246A counted along it
T1 sequence (P24004 whole entry E798Q, chain 1 of 2): as the sequence (P24004 whole entry, chain 1 of 2) above, with E798Q counted along it
T1 sequence (P33760 whole entry E832Q, chain 2 of 2): as the sequence (P33760 whole entry, chain 2 of 2) above, with E832Q counted along it

binding result [1]: binds | Kd [2]: 580 ± 180 nM | Kd [3]: 1980 ± 580 nM | Kd [4]: 580 nM
B1: Pex15 1-309 (cytosolic domain) (domain or fragment, S. cerevisiae, UniProt Q08215 1-309, looked up)
chain: MAASEIMNNLPMHSLDSSLRDLLNDDLFIESDESTKSVNDQRSEVFQECVNLFIKRDIKDCLEKMSEVGFIDITVFKSNPMILDLFVSACDIMPSFTKLGLTLQSEILNIFTLDTPQCIETRKIILGDLSKLLVINKFFRCCIKVIQFNLTDHTEQEEKTLELESIMSDFIFVYITKMRTTIDVVGLQELIEIFIFQVKVKLHHKKPSPNMYWALCKTLPKLSPTLKGLYLSKDVSIEDAILNSIDNKIQKDKAKSKGKQRGVKQKIHHFHEPMLHNSSEEQVKVEDAFNQRTSTDSRLQSTGTAPRKK
notes: likely here too; source: E. coli BL21*, purified (Ni-NTA, tag cleaved with PreScission protease, Superdex 200); not shown: His, C-terminal, cleaved

binding result [5]: binds
B2: MBP-Pex15 1-327-FLAG-His (domain or fragment, S. cerevisiae, UniProt Q08215 1-327, looked up)
chain: MAASEIMNNLPMHSLDSSLRDLLNDDLFIESDESTKSVNDQRSEVFQECVNLFIKRDIKDCLEKMSEVGFIDITVFKSNPMILDLFVSACDIMPSFTKLGLTLQSEILNIFTLDTPQCIETRKIILGDLSKLLVINKFFRCCIKVIQFNLTDHTEQEEKTLELESIMSDFIFVYITKMRTTIDVVGLQELIEIFIFQVKVKLHHKKPSPNMYWALCKTLPKLSPTLKGLYLSKDVSIEDAILNSIDNKIQKDKAKSKGKQRGVKQKIHHFHEPMLHNSSEEQVKVEDAFNQRTSTDSRLQSTGTAPRKKNNDITVLAGSFWAVLKHH
notes: Pex15, S. cerevisiae W303, cytosolic domain residues 1-327; not shown: MBP, N-terminal, kept; FLAG, C-terminal, kept; His, C-terminal, kept

stoichiometry N [6]: 3 Pex15 per Pex1/Pex6 hexamer
B3: Pex15 cytosolic domain (aa 1-327), as used for negative-stain EM (domain or fragment, S. cerevisiae, UniProt Q08215 1-327, looked up)
chain: B2 chain
notes: Pex15, S. cerevisiae W303, cytosolic domain residues 1-327; also called Pex15 cytosolic portion; source: E. coli BL21*, purified (Ni-NTA, Superdex 200); not shown: His, C-terminal, cleaved
